Key:
[1] = test system: PKLR TALEN left subunit (synthetic construct (Xanthomonas TALE-FokI)?); assay: cell_activity; details: PKD2iPSC, with right subunit; 31% in PKD3iPSC; cleavage also seen by Surveyor assay
[2] = test system: PKLR TALEN right subunit (synthetic construct (Xanthomonas TALE-FokI)?); assay: cell_activity; details: PKD2iPSC, with left subunit; 31% in PKD3iPSC; cleavage also seen by Surveyor assay

“TGATCGAGCCACTGTACTCCAGCCTAGGTGACAGACGAGACCCTAGAGA (double strand) [PKLR intron 2 TALEN target, left half-site]” was tested, and the TALEN cleavage efficiency [1] was 40%.

For “TGATCGAGCCACTGTACTCCAGCCTAGGTGACAGACGAGACCCTAGAGA (double strand) [PKLR intron 2 TALEN target, right half-site]”, the TALEN cleavage efficiency [2] was 40%.
